Source: article PMC314469, “Protein Interaction Networks by Proteome Peptide Scanning” (PLoS Biology, 2004)

T1: Boi2 SH3 (BOI2_YEAST), P39969
T1 chain: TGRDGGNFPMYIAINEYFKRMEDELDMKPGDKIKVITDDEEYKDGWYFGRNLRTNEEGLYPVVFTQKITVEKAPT

T2: Yhr016c SH3 (YSC84_YEAST), P32793
T2 chain: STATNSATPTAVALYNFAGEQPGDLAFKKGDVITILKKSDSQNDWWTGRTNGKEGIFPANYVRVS

T3: Rvs167 SH3 (RV167_YEAST), P39743
T3 chain: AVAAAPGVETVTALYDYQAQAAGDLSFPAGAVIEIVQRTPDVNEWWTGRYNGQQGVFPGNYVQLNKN

T4: Yfr024 SH3 (LSB3_YEAST), P43603
T4 chain: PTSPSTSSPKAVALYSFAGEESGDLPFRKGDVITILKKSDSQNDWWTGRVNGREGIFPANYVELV

T5: Boi1 SH3 (BOI1_YEAST), P38041
T5 chain: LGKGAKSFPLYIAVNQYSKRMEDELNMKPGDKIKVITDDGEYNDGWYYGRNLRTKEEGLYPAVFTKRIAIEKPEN

T6: Myo5 SH3 (MYO5_YEAST), Q04439
T6 chain: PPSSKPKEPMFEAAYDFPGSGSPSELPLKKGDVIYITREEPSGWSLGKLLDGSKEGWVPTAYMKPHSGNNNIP


How the values were obtained:
Assay in all cases: SPOT array
[1] = molecular target: Sho1 SH3 (SHO1_YEAST), P40073
[2] = molecular target: T1, Boi2 SH3 (BOI2_YEAST), P39969
[3] = molecular target: T2, Yhr016c SH3 (YSC84_YEAST), P32793
[4] = molecular target: T3, Rvs167 SH3 (RV167_YEAST), P39743
[5] = molecular target: T4, Yfr024 SH3 (LSB3_YEAST), P43603
[6] = molecular target: T5, Boi1 SH3 (BOI1_YEAST), P38041
[7] = molecular target: T6, Myo5 SH3 (MYO5_YEAST), Q04439

Sequence of Sho1 SH3 (SHO1_YEAST), P40073 (P40073 295-366): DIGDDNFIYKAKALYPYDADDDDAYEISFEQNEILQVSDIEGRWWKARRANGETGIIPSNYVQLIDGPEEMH

Row | normalised SPOT signal, Boehringer light units (BLU); mean over the file's lines of this peptide [1] | normalised SPOT signal, Boehringer light units (BLU); mean over the file's lines of this peptide [2] | normalised SPOT signal, Boehringer light units (BLU); mean over the file's lines of this peptide [3] | normalised SPOT signal, Boehringer light units (BLU); mean over the file's lines of this peptide [4] | normalised SPOT signal, Boehringer light units (BLU); mean over the file's lines of this peptide [5] | normalised SPOT signal, Boehringer light units (BLU); mean over the file's lines of this peptide [6] | normalised SPOT signal, Boehringer light units (BLU); mean over the file's lines of this peptide [7] | Binder
1 | 25.4 | 29.9 | 25.7 | 6.3 | 34.8 | 138 | 298 | VSHSKYIPLKPIQD [YGL017W 314-327]
2 | 71.3 | 69.1 | 134 | 361 | 892 | 12200 | 357 | TYGFRVRPDFPVFG [YMR295C 130-143]
3 | 19.2 | 25 | 17.7 | 55.9 | 213 | 103 | 61100 | VAPNRIPPKVPVIN [YDR466W 429-442]
4 | 657 | 23.6 | 173 | 356 | 522 | 64.5 | 444 | TYIWRYLPAPPVSI [YOR116C 255-268]
5 | 22.1 | 13.5 | 15.2 | 35.2 | 0 | 0 | 134 | VDSFKYEPLAPGND [YLR335W 665-678]
6 | 14200 | -0 | 47100 | 11900 | 20100 | 193 | 101 | TYLTRPLPSTPNED [YOL070C 348-361]
7 | 59.8 | 39.1 | 37.4 | 68.8 | 177 | 93.9 | 245 | VSTIRSTPSQPIHS [YDR390C 176-189]
